Reference: paper PMC6402988 (Nature structural & molecular biology, 2019)

Key:
[1] = target: SUDV GP ectodomain (Sudan ebolavirus; strain not named for …, UniProt Q66814); assay: ELISA
[2] = target: rVSV-EBOV GP (wild type) (Zaire ebolavirus (EBOV), UniProt Q05320); assay: ELISA

| Binder | binding result [1] | binding result [2] |
| --- | --- | --- |
| ADI-15946 mutant Y100AA (antibody, V domains shown) VH: EVQLVESGGGLVKPGGSLRLSCAASGFTFSNAWMSWVRQAPGKGLEWVGRIKSKTDGGTIDYAAPVKGRFTISRDDSKNTVYLQMTSLKTEDTAVYYCTTYTEDMRAFDWLLRGGETFDYWGQGTLVTVSS VL: DIRLTQSPSSLSASVGDRVTITCRASHYISTYLNWYQQKPGKAPKLLIYAASNLQSGVPSRFSGSGFGTDFSLTISSLQPEDFATYHCQQSYSTPGRYTFGQGTKVEIK | binds |  |
| 46M1 (antibody, V domains shown) VH: EVQLVESGGGLVKPGGSLRLSCAASGFTFSNAWMSWVRQAPGKGLEWVGRIKSKTDGGTIDYAAPVKGRFTISRDDSKNTVYLQMTSLKTEDTAVYYCTTYTEDMAYFDWLLRGGETFDYWGQGTLVTVSS VL: DIRLTQSPSSLSASVGDRVTITCRASHYISTYLNWYQQKPGKAPKLLIYAASNLQSGVPSRFSGSGFGTDFSLTISSLQPEDFATYHCQQSYSTPGRYTFGQGTKVEIK | binds |  |
| ADI-15946 IgG (antibody, V domains shown) VH: EVQLVESGGGLVKPGGSLRLSCAASGFTFSNAWMSWVRQAPGKGLEWVGRIKSKTDGGTIDYAAPVKGRFTISRDDSKNTVYLQMTSLKTEDTAVYYCTTYTEDMRYFDWLLRGGETFDYWGQGTLVTVSS VL: DIRLTQSPSSLSASVGDRVTITCRASHYISTYLNWYQQKPGKAPKLLIYAASNLQSGVPSRFSGSGFGTDFSLTISSLQPEDFATYHCQQSYSTPGRYTFGQGTKVEIK | binds | binds |
